Measured values from patent US20190127461A1 (ORDER MADE MEDICAL RESEARCH, published 2019).

Experiments:
[1] = molecular target: T1, ICD4 (region consisting of amino acids at positions 196 to 299 of MCT5) (human); test: ELISA, hybridoma culture supernatant on immobilized ICD4, POD-labeled anti-mouse immunoglobulin
T1 construct: Immunogen and ELISA coating antigen
T1 chain: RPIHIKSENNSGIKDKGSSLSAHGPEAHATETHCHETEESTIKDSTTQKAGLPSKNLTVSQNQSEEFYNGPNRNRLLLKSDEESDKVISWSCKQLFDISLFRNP
Procedure: Blood samples which had been collected from mice through their tail veins and diluted 1/160,000 with PBS(-), or alternatively, culture supernatants collected from wells in which hybridomas were growing were analyzed for their antibody titer. ICD4 was diluted with PBS(-) and dispensed into 96-well ELISA plates (Nunc) in an amount of 50 ng per well, and immobilized onto the plate surface by being allowed to stand at room temperature for 1 hour. Then, after the plates were washed three times with 350 μL of TBS-T (25 mM Tris, 150 mM NaCl, 0.05% (v/v) Tween 20, pH 7.4), PBS-T containing 5% skimmed milk was dispensed in a volume of 300 μL per well to conduct blocking for 1 hour at room temperature. After washing with TBS-T, the diluted blood samples or the culture supernatants were dispensed into the ICD4-immobilized ELISA plates and reacted for 1 hour at room temperature. After washing with TBS-T, a 10,000-fold dilution of peroxidase (hereinafter abbreviated as POD)-labeled anti-mouse immunoglobulin antibody (BETHYL) was dispensed in a volume of 100 μL per well and reacted for 1 hour at room temperature. […] After the reaction was stopped with 1.5 N sulfuric acid, the plates were measured for absorbance at 490 nm with a plate reader (Molecular Devices). […]

[2] = molecular target: T2, MCT5 (Monocarboxylate transporter 5) (human, UniProt O15374 1-487); test: flow cytometry on intact HCT116 cells, Alexa 488-labeled secondary antibody; negative control is cells without IMI4C4a
T2 construct: Membrane transporter on intact human cancer cells: MCF7-MCT5 (overexpressing), and MDA-MB231, HCT116 and SK-BR3 (endogenous); also called native MCT5; MCT5 isoform 1
Procedure: HCT116 cells (which are human colorectal cancer cells) were cultured to reach 90% confluency. After being washed twice with PBS(-), the cells were collected with Accutase (Life Technologies) and suspended at 4×10⁵ cells in […] of PBS(-) containing 1% FBS. To this suspension, the antibody IMI4C4a was added at a final concentration of […] and reacted on ice for 60 minutes. For use as a control, a cell suspension free from the antibody IMI4C4a was prepared.

T2 sequence (O15374 whole entry, canonical isoform): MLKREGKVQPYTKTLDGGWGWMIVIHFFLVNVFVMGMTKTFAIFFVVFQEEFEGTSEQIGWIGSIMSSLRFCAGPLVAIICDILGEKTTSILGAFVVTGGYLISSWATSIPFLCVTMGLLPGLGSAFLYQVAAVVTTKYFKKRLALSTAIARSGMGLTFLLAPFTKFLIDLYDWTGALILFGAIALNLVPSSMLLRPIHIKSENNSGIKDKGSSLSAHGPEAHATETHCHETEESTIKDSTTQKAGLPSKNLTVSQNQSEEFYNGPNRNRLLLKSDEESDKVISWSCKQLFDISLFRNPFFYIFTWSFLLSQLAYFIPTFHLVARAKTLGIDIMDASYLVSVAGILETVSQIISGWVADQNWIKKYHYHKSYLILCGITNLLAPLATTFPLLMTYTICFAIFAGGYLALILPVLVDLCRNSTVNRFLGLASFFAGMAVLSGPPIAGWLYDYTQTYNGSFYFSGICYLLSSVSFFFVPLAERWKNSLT

binding result [1]: binds
binding result [2]: binds
B1: anti-MCT5 monoclonal antibody of clone No. IMI4C4a (antibody, V domains shown)
VH: EVQLQQSGAELVRPGALVKLSCKASGFNIKDYYMFWVKQRPEQGLEWIGWIDPENGNTIFDPKFQGKASITADTSSNTAYLQLSSLTSEDTAVYYCARMITTYYYAMDFWGQGTSVTVSS
VL: QLVLTQSSSASFSLGASAKLTCTLSSQHSTYTIEWYQQQPLKPPKYVMELKKDGSHSTGDGIPDRFSGSSSGADRYLSVSSIQPEDEAIYICGVGYTIKEQFVYVFGGGTK
notes: Mouse monoclonal antibody from a hybridoma, detected with anti-mouse IgG; also called antibody IMI4C4a; Mouse-Mouse hybridoma IMI4C4a
